We go through one molecule from article PMC4131202 (Current biology : CB, 2013).

This test has as its target muscle actin filaments (UniProt P68135 1-377). As to the kind of experiment: co-sedimentation.

B1: GST-Pan1(1633-1794), C-terminal fragment of fission yeast Pan1p including the A, PP and W domains (domain or fragment)
chain: PPAPSPLQPSGHDSDNWSQHGDEEEEDSEDDIRSSKDAAALAAKLFGGMAPAHPVSTPPVRPQSAAPPQMSAPTPPPPPMSVPPPPSAPPMPAGPPSAPPPPLPASSAPSVPNPGDRSALLQQIHTGTRLKKTVTTDKSKPIAGRVLDASDGNSSAWYGNLS
For orientation: Kd means a measure of binding affinity in units of concentration. As to B1, the affinity, expressed as Kd, was 2900 nM.
